Here are results for one substance from patent US20260248837A1.

The experiment deals with human CXCR4 (human) (UniProt P61073). Nature of the experiment: cell-based or functional assay.
Sequence of UniProt P61073 (P61073 1-350): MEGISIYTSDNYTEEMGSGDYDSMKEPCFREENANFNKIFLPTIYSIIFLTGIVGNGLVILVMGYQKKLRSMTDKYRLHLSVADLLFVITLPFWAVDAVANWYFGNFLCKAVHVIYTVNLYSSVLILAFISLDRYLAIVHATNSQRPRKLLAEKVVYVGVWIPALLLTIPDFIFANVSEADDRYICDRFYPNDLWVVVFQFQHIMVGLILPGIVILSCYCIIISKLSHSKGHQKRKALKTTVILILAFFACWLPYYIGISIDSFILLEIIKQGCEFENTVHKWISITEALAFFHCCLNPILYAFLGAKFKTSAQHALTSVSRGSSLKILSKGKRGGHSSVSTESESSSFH

“human CXCL12 (human CXCL12α, L-CXCL12) (ligand)” registered a migration of Jurkat cells (chemotaxis assay), half-maximal stimulation of 0.3 nM and a migration of Nalm-6 cells (chemotaxis assay), half-maximal stimulation of 0.3 nM.
